Substitutions are numbered along the chain they refer to. Names may count otherwise.
B1: SEQ ID NO:1 (protein, listed as Pseudomonas fluorescens)
chain: MADLYENPMGLMGFEFIEFASPTPGTLEPIFEIMGFTKVATHRSKNVHLYRQGEINLILNNEPNSIASYFAAEHGPSVCGMAFRVKDSQKAYNRALELGAQPIHIDTGPMELNLPAIKGIGGAPLYLIDRFGEGSSIYDIDFVYLEGVERNPVGAGLKVIDHLTHNVYRGRMVYWANFYEKLFNFREARYFDIKGEYTGLTSKAMSAPDGMIRIPLNEESSKGAGQIEEFLMQFNGEGIQHVAFLTDDLVKTWDALKKIGMRFMTAPPDTYYEMLEGRLPDHGEPVDQLQARGILLDGSSVEGDKRLLLQIFSETLMGPVFFEFIQRKGDDGFGEGNFKALFESIERDQVRRGVLTAD
modifications: 4-hydroxyphenylpyruvate dioxygenase (HPPD; Pseudomonas fluorescens) (1)..(358)
B2: 76 (protein)
chain: B1 chain with P268G, T270R, E335P, G336D, N337S, A340V, I345V
modifications: mutant HPPD polypeptide
B3: 81 (protein)
chain: B1 chain with P268G, T270E, E335P, G336D, N337S, I345V
modifications: mutant HPPD polypeptide
B4: 83 (protein)
chain: B1 chain with P268G, T270E, E335P, G336D, N337S, A340G, I345V
modifications: mutant HPPD polypeptide
B5: 77 (protein)
chain: B1 chain with P268G, T270S, E335P, G336D, N337S, A340V, I345V
modifications: mutant HPPD polypeptide
B6: 72 (protein)
chain: B1 chain with P268R, T270E, E335P, G336D, N337S, A340V, I345V
modifications: mutant HPPD polypeptide
B7: 57 (protein)
chain: B1 chain with P268G, T270E, E335P, G336D, N337S, K339T, A340V, I345V
modifications: mutant HPPD polypeptide
B8: 56 (protein)
chain: B1 chain with P268G, T270E, E335P, G336D, N337S, K339R, A340V, I345V
modifications: mutant HPPD polypeptide
B9: 73 (protein)
chain: B1 chain with P268S, T270E, E335P, G336D, N337S, A340V, I345V
modifications: mutant HPPD polypeptide
B10: 67 (protein)
chain: B1 chain with M264K, P268G, T270E, E335P, G336D, N337S, A340V, I345V
modifications: mutant HPPD polypeptide
B11: 46 (protein)
chain: B1 chain with P268G, T270E, T315M, E335P, G336D, N337S, A340V, I345V
modifications: mutant HPPD polypeptide
B12: 52 (protein)
chain: B1 chain with P268G, T270E, D331S, E335P, G336D, N337S, A340V, I345V
modifications: mutant HPPD polypeptide
B13: SEQ ID NO: 103 (protein)
chain: MADLYENPMGLMGFEFIEFASPTPGTLEPIFEIMGFTKVATHRSKNVHLYRQGEINLILNNEPNSIASYFAAEHGPSVCGMAFRVKDSQKAYNRALELGAQPIHIDTGPMELNLPAIKGIGGAPLYLIDRFGEGSSIYDIDFVYLEGVERNPVGAGLKVIDHLTHNVYRGRMVYWANFYEKLFNFREARYFDIKGEYTGLTSKAMSAPDGMIKIPLNEESSKGAGQIEEFLMQFNGEGIQHVAFLTDDLVKTWDALKKIGMRFLTAPGDEYYEMLEGRLPDHGEPVDQLQARGILLDGSSVEGDKRLLLQIFSERLMGPVFFEFIQRKGDDGFGPHSFKVLFEQMERDQVRRGVLTAD
modifications: mutant HPPD polypeptide
B14: SEQ ID NO: 1: reference wild-type Pseudomonas fluorescens HPPD polypeptide (protein, listed as Pseudomonas fluorescens)
chain: B1 chain
modifications: 4-hydroxyphenylpyruvate dioxygenase (HPPD; Pseudomonas fluorescens) (1)..(358)
B15: SEQ ID NO: 104: mutant HPPD polypeptide: R213K M264L P268G T270E E335P G336H N337S A340V S344Q I345M (protein)
chain: B13 chain with R315T
modifications: mutant HPPD polypeptide
notes: mutant HPPD polypeptide: R213K M264L P268G T270E E335P G336H N337S A340V S344Q I345M
B16: 32 (protein)
chain: B13 chain with K213R, L264M, G268R, R315T, Q344S, M345V
modifications: mutant HPPD polypeptide
B17: SEQ ID NO:104 (protein)
chain: B13 chain with R315T
modifications: mutant HPPD polypeptide
B18: 96 (protein)
chain: B13 chain with L264M, R315T, Q344S, M345V
modifications: mutant HPPD polypeptide

The molecules below were run on HPPD polypeptides (wild-type SEQ ID NO:1 and mutants) (assay: not given). Settings: different HPPD inhibitor herbicide chemical classes.

| Molecule | character of inhibition by HPPD inhibitor herbicides (time-course) |
| --- | --- |
| B1 | slow and tight binding inhibitor |

Same assay, conditions: kapp in presence of 50 μM Cmpd. 1, normalised to kapp without inhibitor; low substrate concentration

| Molecule | Residual activity |
| --- | --- |
| B2 | 19% |
| B3 | 17% |
| B4 | 53% |
| B5 | 19% |
| B6 | 25% |
| B7 | 33% |
| B8 | 27% |
| B9 | 29% |
| B10 | 73% |
| B11 | 32% |
| B12 | 31% |

Same assay, conditions: total change in signal in presence of 50 μM Cmpd. 1, normalised to that without inhibitor; low substrate concentration

| Molecule | Residual turnover |
| --- | --- |
| B2 | 50% |
| B3 | 51% |
| B4 | 87% |
| B5 | 44% |
| B6 | 55% |
| B7 | 68% |
| B8 | 59% |
| B9 | 58% |
| B10 | 96% |
| B11 | 59% |
| B12 | 57% |

The molecules below were run on E. coli cells expressing an HPPD polypeptide (assay: Brown Color Assay on solid LB-agar, visual score of brown pigment). Settings: 25 μM Cmpd. 1.
Format: cell-based
Set-up: key to brown pigment formation: +++: a dark brown coloring as seen for E. coli cells expressing one of the respective mutant HPPD polypeptide without inhibitor; ++: medium brown pigmentation; +: light brown pigmentation; 0: no brown pigmentation development was detected on the LB agar plates
Description: Mutant HPPD polypeptides were analyzed using a brown color assay (WO2014/043435). Bacterial cells expressing the mutant HPPD polypeptide according to the invention were assayed in 96 well format for HPPD inhibitor tolerance by spotting on solid media containing LB-agar, selection agent for the expression vector pSE420(RI)NX (WO2014/043435), 5 mM tyrosine (Sigma-Aldrich, St. Louis, USA), 42 mM succinate (Sigma-Aldrich, St. Louis, USA) and six different concentrations of the HPPD inhibitor herbicide Cmpd. 1 (0-500 μM). In the brown color assay, an overnight culture of the E. coli cells expressing one of the respective mutant HPPD polypeptides were diluted to an OD600 of 1 and 10 μl extract was spotted in triplicates on plates containing 0, 25, 50, 100, 250, or 500 μM of Cmpd. 1. Plates were covered with airpore tape and incubated at 30 degrees C. After 24 hours, the cells were kept in darkness at room temperature and after 7 days the brown pigment formation was scored visually. In the presence of an HPPD inhibitor herbicide, this pigment formation is inhibited and the color of the agar plate will not alter, unless an HPPD inhibitor herbicide tolerant HPPD polypeptide is expressed and active. […] The “++” and “+” scores a medium and light brown pigmentation, respectively, and the “0” means that no brown pigmentation development was detected on the LB agar plates.

| Molecule | brown pigmentation, in words |
| --- | --- |
| B1 | do not produce any brown pigmentation |

Same assay, conditions: 25 μM Cmpd. 1, scored after 7 days

| Molecule | brown pigment formation |
| --- | --- |
| B13 | ++ |
| B14 | 0 |
| B15 | +++ |

Same assay, conditions: 50 μM Cmpd. 1, scored after 7 days

| Molecule | brown pigment formation |
| --- | --- |
| B13 | ++ |
| B14 | 0 |
| B15 | +++ |

Same assay, conditions: 100 μM Cmpd. 1, scored after 7 days

| Molecule | brown pigment formation |
| --- | --- |
| B13 | ++ |
| B14 | 0 |
| B15 | +++ |

Same assay, conditions: 250 μM Cmpd. 1, scored after 7 days

| Molecule | brown pigment formation |
| --- | --- |
| B13 | + |
| B14 | 0 |
| B15 | ++ |

Same assay, conditions: 500 μM Cmpd. 1, scored after 7 days

| Molecule | brown pigment formation |
| --- | --- |
| B13 | 0 |
| B14 | 0 |
| B15 | ++ |

Same assay, conditions: 25, 50, 100, 250 and 500 μM Cmpd. 1

| Molecule | brown coloring compared with SEQ ID NO: 2, in words |
| --- | --- |
| B16 | stronger brown coloring |
| B17 | stronger brown coloring |
| B18 | stronger brown coloring |

The molecules below were run on E. coli cells expressing an HPPD polypeptide (assay: Brown color bioassay in liquid culture, residual brown color formation (BCF), OD440 after 96 hours). Settings: Cmpd. 1 1000 μM, 96 hours.
Format: cell-based
Description: In an additional experiment, mutant HPPD polypeptides were analyzed using the principle of a colorimetric brown color assay (as, for example, described in U.S. Pat. No. 6,768,044). Bacterial cells expressing the HPPD polypeptides according to this invention were assayed in 96 well plate format (Nunc® 96 DeepWell™ plate, Sigma-Aldrich, St. Louis, USA) for HPPD polypeptides with improved HPPD inhibitor herbicide tolerance.
E. coli cells were grown in liquid LB medium (Carl Roth GmbH+Co. KG, Karlsruhe, Germany) containing the selection agent for the expression vector pSE420(RI)NX (WO2014/043435) and 5 mM para-hydroxyphenylpyruvate (HPP; Sigma-Aldrich, St. Louis, USA), in the presence of absence of the HPPD inhibitor herbicide e.g. Cmpd. 1 (1000 μM). An overnight culture of E. coli culture expressing one of the respective HPPD polypeptides according to this invention were adjusted to an OD600 of 0.3-0.5 in a final volume of 500 μL and incubated at 30 degree Celsius. Residual brown color formation was determined by measuring the brown color formation (BCF) in the presence and absence of Cmpd. […] Therefore, after 96 hours the culture was centrifuged and the supernatant of the culture was used to measure the optical density of the soluble brown pigment formation at 440 nm (OD440 nm).

| Molecule | brown pigmentation in the presence of the HPPD inhibitor, in words |
| --- | --- |
| B1 | did not produce a substantial brown pigmentation |

Same assay, conditions: brown color formation in absence of Cmpd. 1, culture supernatant after 96 hours, 5 mM HPP

| Molecule | Control BCF OD440nm |
| --- | --- |
| B2 | 2.73 |
| B3 | 2.05 |
| B4 | 1.83 |
| B5 | 2.57 |
| B6 | 2.77 |
| B7 | 1.39 |
| B8 | 1.98 |
| B9 | 2.75 |
| B10 | 1.93 |
| B11 | 2.47 |
| B12 | 2.08 |

Same assay, conditions: brown color formation with Cmpd. 1 (1000 μM) relative to without, after 96 hours

| Molecule | Residual BCF OD440nm [%] |
| --- | --- |
| B2 | 58% |
| B3 | 39% |
| B4 | 47% |
| B5 | 67% |
| B6 | 72% |
| B7 | 46% |
| B8 | 68% |
| B9 | 72% |
| B10 | 71% |
| B11 | 66% |
| B12 | 65% |

These molecules were tested on transgenic soybean T0 events (assay: Additional greenhouse trials of T0 soybean events, leaf damage score 0-100 as percentiles). Settings: Cmpd. 1 300 g AI/ha, five days; 75th minus 25th percentile.
Format: in vivo
Summary of the method: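 Independent T0 events (21 to 94 per construct, single cassette insertion) expressing mutant HPPD were sprayed with HPPD inhibitor herbicide in the greenhouse. Leaf damage scored 5 days after application from 0 (no damage) to 100 (complete bleaching). Scores reported as percentile distributions (25th, median, 75th) per construct.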

| Molecule | leaf damage score, Interquartile range |
| --- | --- |
| B15 | 15.0 |

Same assay, conditions: Cmpd. 1 300 g AI/ha, five days; scale 0 (no damage) to 100 (complete bleaching)

| Molecule | leaf damage score, 25th percentile |
| --- | --- |
| B15 | 5.0 |

Same assay, conditions: Cmpd. 1 300 g AI/ha, five days; scale 0-100

| Molecule | leaf damage score, 75th percentile | leaf damage score, 90th percentile | leaf damage score, Median |
| --- | --- | --- | --- |
| B15 | 20.0 | 72.5 | 15.0 |

From patent US10597674B2, “HPPD variants and methods of use” (BASF Agricultural Solutions Seed, US LLC, priority 2015, dated 2020)
